Test results reported in patent US20250340666A1 (REGENTS OF THE UNIVERSITY OF COLORADO A BODY CORPORATE, published 2025).

Key:
[1] = target: T1, human CD99 (human, UniProt P14209 23-185); experiment: flow cytometry on DIPG cells: pre-incubation with 10D1-CD99 antibody, then detection of CD99 with the commercial 0662 CD99 antibody (the competitor)
T1 construct: whole, on cells; Endogenous CD99 on patient-derived DIPG cells (flow cytometry) and DIPG tumor tissue sections (IHC); also called MIC2/CD99; cell surface CD99 protein
T1 sequence (looked up): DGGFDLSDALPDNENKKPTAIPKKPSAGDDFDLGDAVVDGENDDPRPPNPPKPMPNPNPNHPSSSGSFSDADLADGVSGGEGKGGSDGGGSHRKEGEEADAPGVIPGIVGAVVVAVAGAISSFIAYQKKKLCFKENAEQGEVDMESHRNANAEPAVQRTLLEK
Description: The engagement/binding of the presently disclosed 10D1-CD99 antibody to the human CD99 epitope was tested.

[2] = target: T2, CD99 epitope peptide antigen (15 amino acid sequence, SEQ ID NO: 1) (human); experiment: BLI, OctetRED 384, SA biosensor
T2 construct: It was used with an SA (streptavidin) biosensor
T2 peptide: DGENDDPRPPNPPKC
Description: The affinity of one embodiment of the disclosed anti-CD99 antibody was tested against the CD99 epitope. Specifically, the epitope was a peptide antigen and the anti-CD99 antibody was the embodiment of 10D1-1 human IgG4/light chain1. As shown in FIG. 20. affinity was analyzed using an SA biosensor, and association and dissociation constants were monitored using OctetRED 384. […] 400 pM, 350 pM, 300 pM, 250 pM, 200 pM, 150 pM, 100 pM, 90 pM, 80 pM, 70 pM. 60 pM, 50 pM, 40 pM, 30 pM, 20 pM, or 10 pM, and less than about 1 pM, 10 pM, 50 pM, 100 pM, 200 pM, 300 pM, 400 pM, 500 pM, 600 pM. 700 pM, 800 pM, or900 pM.

B1: 10D1-CD99 antibody (antibody, V domains shown)
VH: EVQLQQSGPELVKPGASVKISCKASGYSFTGYYMHWVKQSHVKSLEWIGRINPYTGATTYNQIFKDKATLTLDKSSSTAYMELHSLTSEDSAIFYCARYYYGNNYNVYLDYWGQGTTLTVSS
VL: DIQLTQTTSSLSASLGDRVTISCSASQGISNYLSWYQQKPDGTFKLLIYYTSTLHSGVPSRFSGSGSGTDYSLTISNLEPEDIATYYCQQYSNLPWTFGGGTRLEIK
notes: also called rh10D1 anti-CD99 antibody; rh10D1-CD99
[1]
  binding result: binds
[2]
  Kd: 0.436 nM
  koff: 0.000744 s⁻¹
  kon: ~1.71e+06 M⁻¹ s⁻¹
